Measurements as given in US20150218283A1 (BIOSCEPTRE INTERNATIONAL, published 2015).

T1: E200-300 peptide (complex peptide epitope of human P2X7 receptor)
T1 peptide: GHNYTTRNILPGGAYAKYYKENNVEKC

T2: E200-300 peptide (complex peptide epitope of human P2X7 receptor) (human)
T2 construct: also called antigen E200-300
T2 peptide: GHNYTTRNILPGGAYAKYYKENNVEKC


Assays:
[1] = target: T1, E200-300 peptide (complex peptide …); experiment: ELISA; Fab
[2] = target: T2, E200-300 peptide (complex peptide …); experiment: ELISA on the E200-300 epitope target
[3] = target: T2, E200-300 peptide (complex peptide …); experiment: method not stated

EC50 [2] | Binder | also measured
– | 2F6 WT recombinant Fab (Fab, V domains shown) VH: DVKLVESGGGLVKLGGSLKLSCAASGFTFSSYYMSWVRQTPEKRLELVAAINSNGGSTYYPDTVKGRFTISRDNAKNTLYLQMSSLKSEDTAFYYCTRHYSSRFFDVWGAGTTVTVSS VL: DIVMTQSQKFMSTSVGDRVSVTCKASQNVGTNVAWYQQKPGQSPKALIYSASFRYSGVPDRFTGSGSGTDFTLTISNVQSEDLAEFFCQQYNSYPFTFGSGTRLEIK | EC50 [1]: ~250 µg/mL
0.14 µg/mL | 2F6 IgM antibody (original mouse hybridoma antibody, IgM class with Kappa light chains) (antibody, V domains shown, Mouse IgM, kappa light chain, grown in mouse ascites; also called original IgM; IgM form of the original antibody) VH: DVKLVESGGGLVKLGGSLKLSCAASGFTFSSYYMSWVRQTPEKRLELVAAINSNGGSTYYPDTVKGRFTISRDNAKNTLYLQMSSLKSEDTAFYYCTRHYSSRFFDVWGAGTTVTVSS VL: DIVMTQSQKFMSTSVGDRVSVTCKASQNVGTNVAWYQQKPGQSPKALIYSASFRYSGVPDRFTGSGSGTDFTLTISNVQSEDLAEFFCQQYNSYPFTFGSGTRLEIK | –
1.6 µg/mL | recombinant 2F6 mouse IgG2a (antibody, V domains shown, also called 2F6 mIgG2a; mouse IgG2a-2F6) VH: DVKLVESGGGLVKLGGSLKLSCAASGFTFSSYYMSWVRQTPEKRLELVAAINSNGGSTYYPDTVKGRFTISRDNAKNTLYLQMSSLKSEDTAFYYCTRHYSSRFFDVWGAGTTVTVSS VL: DIVMTQSQKFMSTSVGDRVSVTCKASQNVGTNVAWYQQKPGQSPKALIYSASFRYSGVPDRFTGSGSGTDFTLTISNVQSEDLAEFFCQQYNSYPFTFGSGTRLEIK | –
– | 2F6 hIgG1 (antibody, V domains shown) VH: DVKLVESGGGLVKLGGSLKLSCAASGFTFSSYYMSWVRQTPEKRLELVAAINSNGGSTYYPDTVKGRFTISRDNAKNTLYLQMSSLKSEDTAFYYCTRHYSSRFFDVWGAGTTVTVSS VL: DIVMTQSQKFMSTSVGDRVSVTCKASQNVGTNVAWYQQKPGQSPKALIYSASFRYSGVPDRFTGSGSGTDFTLTISNVQSEDLAEFFCQQYNSYPFTFGSGTRLEIK | Kd [3]: 50 nM
